According to patent publication US20250228964A1 (CODIAK BIOSCIENCES, published 2025):

Target: the molecule itself
Experiment: SEC-MALS (eluted at 198 kDa against the predicted 98 kDa) and analytical SEC with 0, 1M or 2M GuHCl
Description: To confirm proper expression of the PTGFRN ECD, the purified protein was analyzed by size exclusion chromatography/multiangle light scattering (SEC-MALS), using BSA and an anti-VLA4 antibody as standards for comparison. Recombinant PTGFRN ECD was eluted at ˜2x its predicted molecular weight (198 kDa as opposed to the predicted molecular weight, 98 kDa; FIG. 20A). To determine whether PTGFRN ECD forms a homodimer in solution, recombinant PTGFRN ECD was run over an analytical SEC column (Tosoh, 7.8×30cm, G3000SW xl) in PBS in the absence of guanidium chloride (GuHCl) or in the presence of 1M or 2M guanidinium chloride (GuHCl).

B1: recombinant PTGFRN extracellular domain (ECD), purified, Fc tag removed with thrombin (receptor)
chain: VPTATLVRVVGTELVIPCNVSDYDGPSEQNFDWSFSSLGSSFVELASTWEVGFPAQLYQERLQRGEILLRRTANDAVELHIKNVQPSDQGHYKCSTPSTDATVQGNYEDTVQVKVLADSLHVGPSARPPPSLSLREGEPFELRCTAASASPLHTHLALLWEVHRGPARRSVLALTHEGRFHPGLGYEQRYHSGDVRLDTVGSDAYRLSVSRALSADQGSYRCIVSEWIAEQGNWQEIQEKAVEVATVVIQPSVLRAAVPKNVSVAEGKELDLTCNITTDRADDVRPEVTWSFSRMPDSTLPGSRVLARLDRDSLVHSSPHVALSHVDARSYHLLVRDVSKENSGYYYCHVSLWAPGHNRSWHKVAEAVSSPAGVGVTWLEPDYQVYLNASKVPGFADDPTELACRVVDTKSGEANVRFTVSWYYRMNRRSDNVVTSELLAVMDGDWTLKYGERSKQRAQDGDFIFSKEHTDTFNFRIQRTTEEDRGNYYCVVSAWTKQRNNSWVKSKDVFSKPVNIFWALEDSVLVVKARQPKPFFAAGNTFEMTCKVSSKNIKSPRYSVLIMAEKPVGDLSSPNETKYIISLDQDSVVKLENWTDASRVDGVVLEKVQEDEFRYRMYQTQVSDAGLYRCMVTAWSPVRGSLWREAATSLSNPIEIDFQTSGPIFNASVHSDTPSVIRGDLIKLFCIITVEGAALDPDDMAFDVSWFAVHSFGLDKAPVLLSSLDRKGIVTTSRRDWKSDLSLERVSVLEFLLQVHGSEDQDFGNYYCSVTPWVKSPTGSWQKEAEIHSKPVFITVKMDVLNAFKYP
notes: Expressed in Expi293 as signal peptide-ECD-PAR1 cleavage site-Fc; the Fc was removed with thrombin, so a remnant of the PAR1 site may remain; also called PTGFRN ECD; purified PTGFRN ECD
binding result: binds
